# According to the Human Domainome abundance scans (Beltran et al. 2025):
# ± gives the uncertainty stated by the source.
# B1: Zinc finger homeobox protein 4, residues 2183 to 2238; numbered along this chain, Q86UP3 (parent)
# chain: SSRTRFTDYQLRVLQDFFDTNAYPKDDEIEQLSTVLNLPTRVIVVWFQNARQKARK
# Variants of: B1
# Assay: abundance fitness (aPCA) (normalised: wild type 0, dead -1); higher = more abundant; growth selection in yeast, the domain comes from the species named
# Details: Homo sapiens
row,Variant,abundance fitness
1,SSRTRFTDYQLRVLQDFFDTNAYPVDDEIEQLSTVLNLPTRVIVVWFQNARQKARK [K25V],-0.068 ± 0.082
2,SSRTRFTDYQLRVLQDFFDTNAYPRDDEIEQLSTVLNLPTRVIVVWFQNARQKARK [K25R],-0.047 ± 0.081
3,SSRTRFTDYQLRVLQDFFDTNAYPNDDEIEQLSTVLNLPTRVIVVWFQNARQKARK [K25N],-0.156 ± 0.15
4,SSRTRFTDYQLRVLQDFFDTNAYPPDDEIEQLSTVLNLPTRVIVVWFQNARQKARK [K25P],-0.244 ± 0.1
5,SSRTRFTDYQLRVLQDFFDTNAYPWDDEIEQLSTVLNLPTRVIVVWFQNARQKARK [K25W],-0.387 ± 0.13
6,SSRTRFTDYQLRVLQDFFDTNAYPMDDEIEQLSTVLNLPTRVIVVWFQNARQKARK [K25M],-0.323 ± 0.13
7,SSRTRFTDYQLRVLQDFFDTNAYPYDDEIEQLSTVLNLPTRVIVVWFQNARQKARK [K25Y],-0.76 ± 0.18
8,SSRTRFTDYQLRVLQDFFDTNAYPSDDEIEQLSTVLNLPTRVIVVWFQNARQKARK [K25S],-0.025 ± 0.09
9,SSRTRFTDYQLRVLQDFFDTNAYPKDDEQEQLSTVLNLPTRVIVVWFQNARQKARK [I29Q],-0.447 ± 0.12
10,SSRTRFTDYQLRVLQDFFDTNAYPKDDEVEQLSTVLNLPTRVIVVWFQNARQKARK [I29V],-0.174 ± 0.083
11,SSRTRFTDYQLRVLQDFFDTNAYPKDDEHEQLSTVLNLPTRVIVVWFQNARQKARK [I29H],-0.633 ± 0.2
12,SSRTRFTDYQLRVLQDFFDTNAYPKDDETEQLSTVLNLPTRVIVVWFQNARQKARK [I29T],-0.256 ± 0.11
13,SSRTRFTDYQLRVLQDFFDTNAYPKDDEMEQLSTVLNLPTRVIVVWFQNARQKARK [I29M],-0.03 ± 0.11
14,SSRTRFTDYQLRVLQDFFDTNAYPKDDESEQLSTVLNLPTRVIVVWFQNARQKARK [I29S],-0.702 ± 0.11
15,SSRTRFTDYQLRVLQDFFDTNAYPKDDENEQLSTVLNLPTRVIVVWFQNARQKARK [I29N],-0.809 ± 0.29
16,SSRTRFTDYQLRVLQDFFDTNAYPKDDEDEQLSTVLNLPTRVIVVWFQNARQKARK [I29D],-0.876 ± 0.23
17,SSRTRFTDYQLRVLQDFFDTNAYPKDDEKEQLSTVLNLPTRVIVVWFQNARQKARK [I29K],-0.576 ± 0.17
18,SSRTRFTDYQLRVLQDFFDTNAYPKDDEAEQLSTVLNLPTRVIVVWFQNARQKARK [I29A],-0.266 ± 0.096
19,SSRTRFTDYQLRVLQDFFDTNAYPKDDEFEQLSTVLNLPTRVIVVWFQNARQKARK [I29F],-0.152 ± 0.11
20,SSRTRFTDYQLRVLQDFFDTNAYPKDDEGEQLSTVLNLPTRVIVVWFQNARQKARK [I29G],-0.88 ± 0.11
21,SSRTRFTDYQLRVLQDFFDTNAYPKDDECEQLSTVLNLPTRVIVVWFQNARQKARK [I29C],-0.015 ± 0.15
22,SSRTRFTDYQLRVLQDFFDTNAYPKDDEYEQLSTVLNLPTRVIVVWFQNARQKARK [I29Y],0.004 ± 0.13
23,SSRTRFTDYQLRVLQDFFDTNAYPKDDEPEQLSTVLNLPTRVIVVWFQNARQKARK [I29P],-1.23 ± 0.2
24,SSRTRFTDYQLRVLQDFFDTNAYPKDDEEEQLSTVLNLPTRVIVVWFQNARQKARK [I29E],-0.614 ± 0.13

row,Variant,abundance fitness
1,SSRTRFTDYQLRVLQDFFDTNAYPKDDEWEQLSTVLNLPTRVIVVWFQNARQKARK [I29W],-0.352 ± 0.12
2,SSRTRFTDYQLRVLQDFFDTNAYPKDDEREQLSTVLNLPTRVIVVWFQNARQKARK [I29R],-0.692 ± 0.089
3,SSRTRFTDYQLRVLQDFFDTNAYPKDDELEQLSTVLNLPTRVIVVWFQNARQKARK [I29L],-0.023 ± 0.083
4,SSRTRFTDYQLRVLQDFFDTNAYPKPDEIEQLSTVLNLPTRVIVVWFQNARQKARK [D26P],-0.193 ± 0.14
5,SSRTRFTDYQLRVLQDFFDTNAYPKLDEIEQLSTVLNLPTRVIVVWFQNARQKARK [D26L],-0.257 ± 0.11
6,SSRTRFTDYQLRVLQDFFDTNAYPKMDEIEQLSTVLNLPTRVIVVWFQNARQKARK [D26M],-0.056 ± 0.15
7,SSRTRFTDYQLRVLQDFFDTNAYPKHDEIEQLSTVLNLPTRVIVVWFQNARQKARK [D26H],-0.021 ± 0.19
8,SSRTRFTDYQLRVLQDFFDTNAYPKCDEIEQLSTVLNLPTRVIVVWFQNARQKARK [D26C],-0.255 ± 0.2
9,SSRTRFTDYQLRVLQDFFDTNAYPKWDEIEQLSTVLNLPTRVIVVWFQNARQKARK [D26W],-0.047 ± 0.1
10,SSRTRFTDYQLRVLQDFFDTNAYPKVDEIEQLSTVLNLPTRVIVVWFQNARQKARK [D26V],-0.048 ± 0.086
11,SSRTRFTDYQLRVLQDFFDTNAYPKTDEIEQLSTVLNLPTRVIVVWFQNARQKARK [D26T],-0.071 ± 0.16
12,SSRTRFTDYQLRVLQDFFDTNAYPKKDEIEQLSTVLNLPTRVIVVWFQNARQKARK [D26K],0.067 ± 0.13
13,SSRTRFTDYQLRVLQDFFDTNAYPKIDEIEQLSTVLNLPTRVIVVWFQNARQKARK [D26I],-0.427 ± 0.22
14,SSRTRFTDYQLRVLQDFFDTNAYPKSDEIEQLSTVLNLPTRVIVVWFQNARQKARK [D26S],-0.049 ± 0.09
15,SSRTRFTDYQLRVLQDFFDTNAYPKFDEIEQLSTVLNLPTRVIVVWFQNARQKARK [D26F],-0.087 ± 0.17
16,SSRTRFTDYQLRVLQDFFDTNAYPKGDEIEQLSTVLNLPTRVIVVWFQNARQKARK [D26G],0.005 ± 0.085
17,SSRTRFTDYQLRVLQDFFDTNAYPKEDEIEQLSTVLNLPTRVIVVWFQNARQKARK [D26E],-0.163 ± 0.12
18,SSRTRFTDYQLRVLQDFFDTNAYPKQDEIEQLSTVLNLPTRVIVVWFQNARQKARK [D26Q],-0.031 ± 0.13
19,SSRTRFTDYQLRVLQDFFDTNAYPKNDEIEQLSTVLNLPTRVIVVWFQNARQKARK [D26N],-0.114 ± 0.15
20,SSRTRFTDYQLRVLQDFFDTNAYPKADEIEQLSTVLNLPTRVIVVWFQNARQKARK [D26A],0.003 ± 0.1
21,SSRTRFTDYQLRVLQDFFDTNAYPKRDEIEQLSTVLNLPTRVIVVWFQNARQKARK [D26R],-0.05 ± 0.083
22,SSRTRFTDYQLRVLQDFFDTNAYPKYDEIEQLSTVLNLPTRVIVVWFQNARQKARK [D26Y],-0.234 ± 0.22
23,SSRTRFTDYQLRVLQDFFDTNAYPKDNEIEQLSTVLNLPTRVIVVWFQNARQKARK [D27N],0.001 ± 0.21
